From patent publication US20260167699A1 (Chugai, published 2026)

T1: FcγRIIb extracellular domain, His-tagged (human, UniProt P31994 43-217)
T1 construct: extracellular domain; also called 2b
T1 sequence: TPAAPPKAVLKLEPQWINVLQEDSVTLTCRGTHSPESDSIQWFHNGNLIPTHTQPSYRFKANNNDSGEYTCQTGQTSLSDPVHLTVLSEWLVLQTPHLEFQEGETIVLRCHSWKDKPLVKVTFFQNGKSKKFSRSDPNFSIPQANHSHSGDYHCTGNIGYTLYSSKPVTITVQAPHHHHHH

T2: FcγRIIa(H) extracellular domain, His-tagged (human, UniProt P12318 34-217)
T2 construct: extracellular domain; also called 2aH
T2 sequence: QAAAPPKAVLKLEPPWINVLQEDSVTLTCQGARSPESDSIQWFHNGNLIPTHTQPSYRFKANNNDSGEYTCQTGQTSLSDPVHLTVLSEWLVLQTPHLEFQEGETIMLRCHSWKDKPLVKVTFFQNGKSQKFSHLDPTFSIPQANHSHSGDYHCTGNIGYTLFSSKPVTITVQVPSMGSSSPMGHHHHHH

T3: FcγRIIa(R) extracellular domain, His-tagged (human, UniProt P12318 34-217)
T3 construct: extracellular domain; also called 2aR
T3 sequence: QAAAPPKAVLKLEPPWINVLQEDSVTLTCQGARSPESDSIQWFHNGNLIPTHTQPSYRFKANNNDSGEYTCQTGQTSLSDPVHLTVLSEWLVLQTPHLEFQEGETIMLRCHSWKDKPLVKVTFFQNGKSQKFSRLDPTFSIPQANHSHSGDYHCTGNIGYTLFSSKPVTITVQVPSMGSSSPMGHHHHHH


What was measured:
Test in all cases: SPR, vs GpH7-A5/GpH7-B3/GpL16-k0 =100
[1] = target: T4, FcγRIIIa extracellular domain, His-tagged (human, UniProt P08637 17-208)
T4 construct: extracellular domain; also called 3a

[2] = target: T5, FcγRIa extracellular domain, His-tagged (human, UniProt P12314 16-292)
T5 construct: extracellular domain; also called 1a

[3] = target: T1, FcγRIIb extracellular domain, His-tagged
[4] = target: T2, FcγRIIa(H) extracellular domain, …
[5] = target: T3, FcγRIIa(R) extracellular domain, …

T5 sequence (P12314 other isoform, or with tags, fused parts or gaps): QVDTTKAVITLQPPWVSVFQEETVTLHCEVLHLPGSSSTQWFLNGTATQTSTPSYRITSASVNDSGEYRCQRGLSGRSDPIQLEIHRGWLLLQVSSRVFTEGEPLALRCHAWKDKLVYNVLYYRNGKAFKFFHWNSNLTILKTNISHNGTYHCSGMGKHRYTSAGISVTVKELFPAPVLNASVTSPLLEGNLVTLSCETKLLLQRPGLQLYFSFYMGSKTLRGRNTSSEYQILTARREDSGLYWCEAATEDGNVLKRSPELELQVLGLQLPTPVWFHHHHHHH
T4 sequence (P08637 other isoform, or with tags, fused parts or gaps): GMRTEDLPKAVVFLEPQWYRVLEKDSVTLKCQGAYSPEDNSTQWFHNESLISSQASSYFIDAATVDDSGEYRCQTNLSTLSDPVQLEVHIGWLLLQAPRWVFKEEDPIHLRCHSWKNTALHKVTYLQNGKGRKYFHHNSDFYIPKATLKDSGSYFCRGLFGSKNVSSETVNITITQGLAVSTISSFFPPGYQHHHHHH

Row | Binder | He/Con 3a [1] | He/Con 1a [2] | He/Con 2b [3] | He/Con 2aH [4] | He/Con 2aR [5]
1 | GpH7-A5/GpH7-B3 variant L234_02A/GpL16-k0 (antibody, human IgG1, kappa) heavy 1: not shown heavy 2: not shown light: DIVMTQSPLSLPVTPGEPASISCQASESLVHSNRNTYLHWYLQKPGQSPQLLIYKVSNRFSGVPDRFSGSGSGTDFTLKISRVEAEDVGVYYCSQNTHVPPTFGQGTKVEIERTVAAPSVFIFPPSDEQLKSGTASVVCLLNNFYPREAKVQWKVDNALQSGNSQESVTEQDSKDSTYSLSSTLTLSKADYEKHKVYACEVTHQGLSSPVTKSFNRGEC | 69.7 % of control | 101 % of control | 74.1 % of control | 90.1 % of control | 92.5 % of control
2 | GpH7-A5/GpH7-B3 variant L234_07I/GpL16-k0 (antibody, human IgG1, kappa) heavy 1: not shown heavy 2: not shown light: DIVMTQSPLSLPVTPGEPASISCQASESLVHSNRNTYLHWYLQKPGQSPQLLIYKVSNRFSGVPDRFSGSGSGTDFTLKISRVEAEDVGVYYCSQNTHVPPTFGQGTKVEIERTVAAPSVFIFPPSDEQLKSGTASVVCLLNNFYPREAKVQWKVDNALQSGNSQESVTEQDSKDSTYSLSSTLTLSKADYEKHKVYACEVTHQGLSSPVTKSFNRGEC | 99.5 % of control | 106 % of control | 92.3 % of control | 101 % of control | 110 % of control
3 | GpH7-A5/GpH7-B3 variant L234_06M/GpL16-k0 (antibody, human IgG1, kappa) heavy 1: not shown heavy 2: not shown light: DIVMTQSPLSLPVTPGEPASISCQASESLVHSNRNTYLHWYLQKPGQSPQLLIYKVSNRFSGVPDRFSGSGSGTDFTLKISRVEAEDVGVYYCSQNTHVPPTFGQGTKVEIERTVAAPSVFIFPPSDEQLKSGTASVVCLLNNFYPREAKVQWKVDNALQSGNSQESVTEQDSKDSTYSLSSTLTLSKADYEKHKVYACEVTHQGLSSPVTKSFNRGEC | 82.9 % of control | 107 % of control | 89.6 % of control | 96.4 % of control | 109 % of control
4 | GpH7-A5/GpH7-B3 variant H268_20W/GpL16-k0 (antibody, human IgG1, kappa) heavy 1: not shown heavy 2: not shown light: DIVMTQSPLSLPVTPGEPASISCQASESLVHSNRNTYLHWYLQKPGQSPQLLIYKVSNRFSGVPDRFSGSGSGTDFTLKISRVEAEDVGVYYCSQNTHVPPTFGQGTKVEIERTVAAPSVFIFPPSDEQLKSGTASVVCLLNNFYPREAKVQWKVDNALQSGNSQESVTEQDSKDSTYSLSSTLTLSKADYEKHKVYACEVTHQGLSSPVTKSFNRGEC | 82 % of control | 103 % of control | 117 % of control | 96.9 % of control | 122 % of control
5 | GpH7-A5/GpH7-B3 variant L234_13S/GpL16-k0 (antibody, human IgG1, kappa) heavy 1: not shown heavy 2: not shown light: DIVMTQSPLSLPVTPGEPASISCQASESLVHSNRNTYLHWYLQKPGQSPQLLIYKVSNRFSGVPDRFSGSGSGTDFTLKISRVEAEDVGVYYCSQNTHVPPTFGQGTKVEIERTVAAPSVFIFPPSDEQLKSGTASVVCLLNNFYPREAKVQWKVDNALQSGNSQESVTEQDSKDSTYSLSSTLTLSKADYEKHKVYACEVTHQGLSSPVTKSFNRGEC | 68.1 % of control | 100 % of control | 67.7 % of control | 89.4 % of control | 82.6 % of control
6 | GpH7-A5/GpH7-B3 variant L234_10E/GpL16-k0 (antibody, human IgG1, kappa) heavy 1: not shown heavy 2: not shown light: DIVMTQSPLSLPVTPGEPASISCQASESLVHSNRNTYLHWYLQKPGQSPQLLIYKVSNRFSGVPDRFSGSGSGTDFTLKISRVEAEDVGVYYCSQNTHVPPTFGQGTKVEIERTVAAPSVFIFPPSDEQLKSGTASVVCLLNNFYPREAKVQWKVDNALQSGNSQESVTEQDSKDSTYSLSSTLTLSKADYEKHKVYACEVTHQGLSSPVTKSFNRGEC | 111 % of control | 104 % of control | 134 % of control | 98.2 % of control | 130 % of control
7 | GpH7-A5/GpH7-B3 variant L234_04F/GpL16-k0 (antibody, human IgG1, kappa) heavy 1: not shown heavy 2: not shown light: DIVMTQSPLSLPVTPGEPASISCQASESLVHSNRNTYLHWYLQKPGQSPQLLIYKVSNRFSGVPDRFSGSGSGTDFTLKISRVEAEDVGVYYCSQNTHVPPTFGQGTKVEIERTVAAPSVFIFPPSDEQLKSGTASVVCLLNNFYPREAKVQWKVDNALQSGNSQESVTEQDSKDSTYSLSSTLTLSKADYEKHKVYACEVTHQGLSSPVTKSFNRGEC | 114 % of control | 104 % of control | 114 % of control | 133 % of control | 121 % of control
8 | GpH7-A5/GpH7-B3 variant L234_03V/GpL16-k0 (antibody, human IgG1, kappa) heavy 1: not shown heavy 2: not shown light: DIVMTQSPLSLPVTPGEPASISCQASESLVHSNRNTYLHWYLQKPGQSPQLLIYKVSNRFSGVPDRFSGSGSGTDFTLKISRVEAEDVGVYYCSQNTHVPPTFGQGTKVEIERTVAAPSVFIFPPSDEQLKSGTASVVCLLNNFYPREAKVQWKVDNALQSGNSQESVTEQDSKDSTYSLSSTLTLSKADYEKHKVYACEVTHQGLSSPVTKSFNRGEC | 88.3 % of control | 108 % of control | 83.4 % of control | 94.4 % of control | 99 % of control
9 | GpH7-A5/GpH7-B3 variant L234_09D/GpL16-k0 (antibody, human IgG1, kappa) heavy 1: not shown heavy 2: not shown light: DIVMTQSPLSLPVTPGEPASISCQASESLVHSNRNTYLHWYLQKPGQSPQLLIYKVSNRFSGVPDRFSGSGSGTDFTLKISRVEAEDVGVYYCSQNTHVPPTFGQGTKVEIERTVAAPSVFIFPPSDEQLKSGTASVVCLLNNFYPREAKVQWKVDNALQSGNSQESVTEQDSKDSTYSLSSTLTLSKADYEKHKVYACEVTHQGLSSPVTKSFNRGEC | 113 % of control | 101 % of control | 172 % of control | 100 % of control | 142 % of control

Next, values leading:

Row | He/Con 3a [1] | He/Con 1a [2] | He/Con 2b [3] | He/Con 2aH [4] | He/Con 2aR [5] | Binder
10 | 121 % of control | 106 % of control | 168 % of control | 114 % of control | 137 % of control | GpH7-A5/GpH7-B3 variant H268_13S/GpL16-k0 (antibody, human IgG1, kappa) heavy 1: not shown heavy 2: not shown light: DIVMTQSPLSLPVTPGEPASISCQASESLVHSNRNTYLHWYLQKPGQSPQLLIYKVSNRFSGVPDRFSGSGSGTDFTLKISRVEAEDVGVYYCSQNTHVPPTFGQGTKVEIERTVAAPSVFIFPPSDEQLKSGTASVVCLLNNFYPREAKVQWKVDNALQSGNSQESVTEQDSKDSTYSLSSTLTLSKADYEKHKVYACEVTHQGLSSPVTKSFNRGEC
11 | 96.5 % of control | 104 % of control | 112 % of control | 113 % of control | 118 % of control | GpH7-A5/GpH7-B3 variant H268_15Y/GpL16-k0 (antibody, human IgG1, kappa) heavy 1: not shown heavy 2: not shown light: DIVMTQSPLSLPVTPGEPASISCQASESLVHSNRNTYLHWYLQKPGQSPQLLIYKVSNRFSGVPDRFSGSGSGTDFTLKISRVEAEDVGVYYCSQNTHVPPTFGQGTKVEIERTVAAPSVFIFPPSDEQLKSGTASVVCLLNNFYPREAKVQWKVDNALQSGNSQESVTEQDSKDSTYSLSSTLTLSKADYEKHKVYACEVTHQGLSSPVTKSFNRGEC
12 | 85.1 % of control | 103 % of control | 83.2 % of control | 104 % of control | 104 % of control | GpH7-A5/GpH7-B3 variant L234_05P/GpL16-k0 (antibody, human IgG1, kappa) heavy 1: not shown heavy 2: not shown light: DIVMTQSPLSLPVTPGEPASISCQASESLVHSNRNTYLHWYLQKPGQSPQLLIYKVSNRFSGVPDRFSGSGSGTDFTLKISRVEAEDVGVYYCSQNTHVPPTFGQGTKVEIERTVAAPSVFIFPPSDEQLKSGTASVVCLLNNFYPREAKVQWKVDNALQSGNSQESVTEQDSKDSTYSLSSTLTLSKADYEKHKVYACEVTHQGLSSPVTKSFNRGEC
13 | 103 % of control | 104 % of control | 164 % of control | 113 % of control | 138 % of control | GpH7-A5/GpH7-B3 variant H268_18N/GpL16-k0 (antibody, human IgG1, kappa) heavy 1: not shown heavy 2: not shown light: DIVMTQSPLSLPVTPGEPASISCQASESLVHSNRNTYLHWYLQKPGQSPQLLIYKVSNRFSGVPDRFSGSGSGTDFTLKISRVEAEDVGVYYCSQNTHVPPTFGQGTKVEIERTVAAPSVFIFPPSDEQLKSGTASVVCLLNNFYPREAKVQWKVDNALQSGNSQESVTEQDSKDSTYSLSSTLTLSKADYEKHKVYACEVTHQGLSSPVTKSFNRGEC
14 | 55.8 % of control | 99.2 % of control | 57.8 % of control | 84.1 % of control | 72.4 % of control | GpH7-A5/GpH7-B3 variant L234_01G/GpL16-k0 (antibody, human IgG1, kappa) heavy 1: not shown heavy 2: not shown light: DIVMTQSPLSLPVTPGEPASISCQASESLVHSNRNTYLHWYLQKPGQSPQLLIYKVSNRFSGVPDRFSGSGSGTDFTLKISRVEAEDVGVYYCSQNTHVPPTFGQGTKVEIERTVAAPSVFIFPPSDEQLKSGTASVVCLLNNFYPREAKVQWKVDNALQSGNSQESVTEQDSKDSTYSLSSTLTLSKADYEKHKVYACEVTHQGLSSPVTKSFNRGEC
15 | 113 % of control | 104 % of control | 140 % of control | 104 % of control | 128 % of control | GpH7-A5/GpH7-B3 variant H268_19Q/GpL16-k0 (antibody, human IgG1, kappa) heavy 1: not shown heavy 2: not shown light: DIVMTQSPLSLPVTPGEPASISCQASESLVHSNRNTYLHWYLQKPGQSPQLLIYKVSNRFSGVPDRFSGSGSGTDFTLKISRVEAEDVGVYYCSQNTHVPPTFGQGTKVEIERTVAAPSVFIFPPSDEQLKSGTASVVCLLNNFYPREAKVQWKVDNALQSGNSQESVTEQDSKDSTYSLSSTLTLSKADYEKHKVYACEVTHQGLSSPVTKSFNRGEC
